Results on two sequences are retold here after patent US20090186816.

Series [1] deals with F-ZFPcont-meth-NES (ZFPcont fused to human DNMT3a catalytic domain residues 592-909) (synthetic construct). Description: cell_activity. The following applies: NARP cells; scale: fold lower CpG methylation than F-ZFPNARP-meth-NES.
Series [2] deals with F-ZFPNARP-meth-NES (ZFPNARP fused to human DNMT3a catalytic domain residues 592-909) (synthetic construct). Briefly: cell_activity.

For the sequence “GCCCGGGCC (double strand) [NARP T8993G mtDNA site]”, the activity in series [1] is 6. Also, the activity (% of clones with CpG methylation) in series [2] (bisulfite sequencing around site in NARP cybrid cells, CpGs within site protected) is 23. Regarding “GCCCTGGCC (double strand) [wild-type mtDNA 8993 site]”, in series [2] (wt cells, indistinguishable from background, scale: fold lower CpG methylation than on NARP site), the activity was determined as 6.
